The source of these data is the DeepSol protein solubility set.

A short description of the data set: soluble on expression in E. coli; label from the status in PepcDB or PDB records.
For the sequence “SNGILREVSGIASNSAFYWTNLTSKPYMGFRSGRNWSMTSGDIRTVRSQVPEVEFISPIMWGARSNKNVVFGDKSETYSIVGAEPDYFEISRVNILQGRMLNAVDDKLRRKVCMIGKEVKEKLFGTTDPIGQVLRVNGLYYRVIGVLEAKSNNVTIGSSPKRSVYLPYSVLQQISNSGNRVENFAVSAYPSADMKQMFKKTETIIRSRNQIAPDDDKALSKFDISAQFQLMNMIFTGINL”, the “soluble on expression in E. coli” value is listed as “not soluble”.

Consider “MGSDKIHHHHHHMTHQANDAVAPASGMIELSHSFDANRFLAAVDRDERATLIANLQLVHLKSGQVLCEPGEMLTAVYLPVTTAISLQYVSTGGMTLEVAQIGSESVVCDDVIGGSGRMPCRAVACRDGFVYRLDRRIFAAAFDASPVIRHLVFVCVRLLMAQVAQITFCSRHHVLKHQLCRWFLLAYDRSRSIEIQVTHSMLAQMLGVRRETVTDAAGEIQRLGLIRQYRSSIVLADLAGLEKLSCGCRAIVRDEMKRILSADSGVSAAARA”, for which the “soluble on expression in E. coli” value was “not soluble”.

Consider “MNNPEESAVTDLRKFTNLVLNGLVDEEATAAALIRYQFQQRTIKDVVRRGSEDPELKAQICDLLNHLVIYLNEEIVETSSKACPDGMDDRHFVQLEKRMHLMFEVYLAMNVVPDYLIPDLTKHVDASREAVKYSYSLCKDYYRWKELPLTLKEFFLDEKEEVKAVVDEPEPTMFARDDGVVSSLAHEKAQSDEDGKKKQFVAKTEKVLNNYRAKNPDYRTMRELINAKTKFRLEGIYCDSLIDDFISVWDMAIDIEPVKTEDKFAFTSLLKKVFLMMVDKRRNDFASKILDKYNNDASGVLPCLDNFVENFQTGLTAAINNLPLDANVLSNNMELFEKAKDPIIWYLLISPAYTVQQILLICVDNKGYVPLVSRIFRAIPTLFERSVNLTPMHFEGFKTQKLLITILHRVFIIGRTTWTSASQWENAAMMTMSFAKERKRKEGQPEKVEDKALLDSFSLVNFALNELFKDYRKPLKAVEIFVKMLQRLLANNNNARMLTNYQFSSSFFDDGNNYLPTSIIMLLMFDLLVEYDGQSNEVCDGARDILKSVSGRLNNDNIIFDTDTCRHLIDEKLNYAPWWIKYSICSWFSSSLQNPKKQVPSGVYKTIAEQHLDEFEQIKPEEVSTVSDCYFRSLFELGLFDVDLAIELLQYGHVAKFESSVVEKIALALVDSYGKKMSKRSGGLDIGKLIISMLQNSSYLESVKKIEHILVLFMAARIAKEKQLSAARVRTDDTIQTAYDEVISLNQVSDQLMDIFCETTKAHVDKEVMEVEQMRREVEVLLFSTPGTTPNQFKAMVEKENREQSLALQLSMIYLNCSYFCRLYQQVPIKLQQLMNSTLEKQFDSQKFLAKKVMDDVLTEKRKTEVVYAFVDTPVEPTPNEDNIQPVKPAELFRPPVVENVSVESTTYNSNGGGYRQGRYQTGYQGKNRRSNFEQPTSSRGSGRSDRTYAYKGNRFQPVNDSHVFAPRERENVYQNSSHDRDIPRNDYSEYDQEKLYLDDKQPRFHSENRNSNDVRRYSESKDSKYDNKNWNNRSSRWPSESEYSQEDSENRHLDQTIQSVRKFSYRENQQKHNRPGTSSASPPKNQEWKQHQQQKKSFGGGFGENGNKFNGNSRKQPERKPRYTSSNFYEQDEDSLQLLKPDRNELAQAMGLNDPPNPPKPRRSEWTRR”, for which the “soluble on expression in E. coli” value is “not soluble”.

For “MGSDKIHHHHHHMSAPPLCVTVCGGGRTGHLNAILFAQRPGVRVKLLTRNHHIAARQDAVLTGLLPDGATLTASAGMVTDDPAVALRDADIVIITVPAHARPSLLREIVAHLPEGKAVYVGAIPGFCGFDWLAGALLAQRPNAVIWGMKDVPHTAFALDPGVSVRMGGVKQRLYVGCHAREQRAARQALLSHLNRLYDASVELLDSYLEITLTPGNPIMHSAVIYGLIGPYGQWHGRALPTPLCWWTDCPELSAYFLERADEESQRLCQAVARRLGVDLSSVKPLRQEIVDAYGDQIQDPSTMLSVLRTNRAYADIEAPLVPTSGGYLVDTSSRAFHEDVAYGLATLVEMARRLGVDTPHLREIFEWNVTYMGGLRGSALDYFPEFWPR”, the “soluble on expression in E. coli” value was “not soluble”.

In the case of “MSLSAVKIAVILPMTGGISAFGRMVWEGIQIAHEEKPTVLGEEVELVLLDTRSEKTEAANAAARAIDKEKVLAIIGEVASAHSLAIAPIAEENKVPMVTPASTNPLVTQGRKFVSRVCFIDPFQGAAMAVFAYKNLGAKRVVVFTDVEQDYSVGLSNFFINKFTELGGQVKRVFFRSGDQDFSAQLSVAMSFNPDAIYITGYYPEIALISRQARQLGFTGYILAGDGADAPELIEIGGEAVEGLLFTTHYHPKAASNPVAKKFVEVYKEKYGKEPAALNALGYDAYMVLLDAIERAGSFDREKIAEEIRKTRNFNGASGIINIDENGDEGHHHHHH”, the “soluble on expression in E. coli” value was “soluble”.

As for “MSLSIKLIAVDIDGTLVNSQKEITPEVFSAIQDAKEAGVKVVIATGRPIAGVAKLLDDLQLRDQGDYVVTFNGALVQETATGHEIISESLTYEDYLDMEFLSRKLGVHMHAITKDGIYTANRNIGKYTVHESTLVSMPIFYRTPEEMAGKEIVKCMFIDEPEILDAAIEKIPAEFYERYSINKSAPFYLELLTKNVDKGSAITHLAEKLGLTKDETMAIGDEENDRAMLEVVGNPVVMENGNPEIKKIAKYITKTNDESGVAHAIRTWVLEGHHHHHH”, the “soluble on expression in E. coli” value is listed as “soluble”.

With “QIDYMTNSDMGYDYRNKLIIDVFGLDPQIVSTMRTEIAKIPGITGIGLTRGTPLNGGNNNSSEYRGRPLSMQIFSIDSVALSLFDLKMKPNGRKADKPDRTLYLSRSAYNDFDVANLPDGVIHWGKAGEFYYCGDAPEVHFGGFKEPHPSYLFIPYPQSSAWSWSVLVGYSEGADPEQLIQSIQAVYSRITGQPYTEILRSEDIIASHSEEERSLS”, the “soluble on expression in E. coli” value is listed as “not soluble”.

Turning to “MGSDKIHHHHHHMKVLLYLEGKTVLEKSGIGRALQHQMEALDMAGIPYTTDLLGDYDVIHINTYGPRSWLLLHAAKRSGKKVIMHGHSTKEDFQNSFIGSNTLAPFVGKYLASMYQKADFVITPSEYSKKLIQSYGVTTPIIAVSNGIDLDKYKKDERKEAIFREHFKIEEGQPVVVCAGLYFRRKGIEDFVKVAEKMPHVRFIWLGSINKWLIPSYIRKIVEGDHPANVEFPGYFKGAVFQGAMSGADAFFFPSYEETEGIVVLEALASHQHVVLRDIPVYDGWVDENVAELGHTVDDFVDSIQKILDKQVDKREAGYQVAVSRSIDNVSHQLVDAYRQVLEM”, the “soluble on expression in E. coli” value is reported as “not soluble”.

Consider “KPTAEVVPVNRGFHFQTNKVPSESDVFKHNYDLTFSLNFTNKSNDIYGTGWLFDWKGDEKALGIDGSFVPSITSNIDNSLLKDDQFTVYLATNLHVADALRNDQDYEPYKKDQNKQDFTENTKTEFFSLGKYLEGEQLKQYISKEENQSANQTDKALVSIQASNIPKTAYTATDFVDMNSYSYNNITTSLPGNYADFAVI”, for which the “soluble on expression in E. coli” value was “not soluble”.

For “MGSDKIHHHHHHMRVGVIGVGCSRFGRRDDAVIQELAYEAVKEALDDAGITQDEVELSVVGSVNTRGYELMPAVPVNEYCGFAGKGPLRVEAACATGAAAVYTAYTSIASGMADVAIAIGVEKMTEVDTATSLAIGGRAGNYLWEFHQYGTTFPAYYAMHATAHMAKYGTTEEQMAKVAVKAHRNAARNPKAHFQKEIAVEDVLNSRYITYPLKLYDCSPISDGSAAAILASEEKIRELGIDDVVWIDSVGYASDTSNMTNRESFVGLKATVLAREMAYRKAGIEEPVKQLDFATVHDCFTIAEIMAYEDLGFCRKGEGGKLVESGETELGGKLPVNTFGGLKAKGHPLAATGVAMVYEIVKQLRGEAGELQVELRNNRALLHNVGGTGHFAFVMIFGR”, the “soluble on expression in E. coli” value is on record as “not soluble”.

“MPASYLHHRSVTQQLPIMSTPHTDFFGLTIPFMQLLGVVPEHSGNGTARTRLPARADLVNSRGDIHGGTLMSVLDFTLGAAIRGDTPEVGVATIDMNTSFMSPGRGDLVIETRCLRRGASIAFCEGEIRDSAGELVAKATATFKIIQRRPGLEHHHHHH”: the “soluble on expression in E. coli” value is on record as “soluble”.

On to “SKYVDRVIAEVEKKYADEPEFVQTVEEVLSSLGPVVDAHPEYEEVALLERMVIPERVIEFRVPWEDDNGKVHVNTGYRVQFNGAIGPYLGGLRFAPSVNLSIMKFLGFEQAFKDSLTTLPMGGAKGGSDFDPNGKSDREVMRFCQAFMTELYRHIGPDIDVPAGDLGVGARELGYMYGQYRKIVGGFYNGVLTGKARSFGGSLVRPEATGYGSVYYVEAVMKHENDTLVGKTVALAGFGNVAWGAAKKLAELGAKAVTLSGPDGYIYDPEGITTEEKINYMLEMRASGRNKVQDYADKFGVQFFPGEKPWGQKVDIIMPCATQNDVDLEQAKKIVANNVKYYIEVANMPTTNEALRFLMQQPNMVVAPSKAVNAGGVLVSGFEMSQNSERLSWTAEEVDSKLHQVMTDIHDGSAAAAERYGLGYNLVAGANIVGFQKIADAMMAQGIAW”, for which the “soluble on expression in E. coli” value was “soluble”.

Regarding “MGSDKIHHHHHHMNNTTENGQYFVAAFEPGAEHPALPTWASCNDNGAELALSAPSTVSKKPLTDVPGAFQLLNVLSADECQRLISVSETMGFLPDAAVSLPRNVRHNDSLTWVVDNTTERLIWDRIAGVMTDDLGIFEGKAALGLNNRFRFYRYNEGDYFKPHSDGSWPGSQVIDGELVRDAFGDRYSQLTFLILLTEDFEGGATRFLVNADKPNLPAKHGDNMRQVDVRTPAGSVLCFPHGMHPLHCIHSSEPIFSGVKYIIRTDVLFEL”, the “soluble on expression in E. coli” value is listed as “not soluble”.

In the case of “MNRVYCTARSFRTSVKSNGWVHKWSRFKRWQEMQAAHVENVQEKQRNKNFIRLPTGLYITPERPDDLNPKKAPADMTRKDTGQLPMELLTWHTQMRYVDHSIDNIKRYRRYKKFQHMQYDQRVIPERLLFLGPDLAAAHFLVHRGAAVKFVGDDNWYKKDKWNRYSLPGRKVDNLFIEAIDASGTQIMFEGLENLENLQKLRLLRLANSEYVDDWCIGRIGGLLPNLEMLDLSGCHRISSKGLMGLKASKNLKFLRLEGLSGIRNLGKSALILEDLLPKLQILGMDYELSFRQIEAENRLLEQERVVLDGRGNAFVEDDNSRLFLVMSTSSDDKAVTDDHDNPIMTSTVRREIPKMDDAEFEEINALSGGKLRHLLVGSPSGYEWTETTERILEHEAELNLTDNVITDPKMLPRGKRPEFELPEHRSRLEDAKAQFLKEFGDFEENSDKEQLKSH”, the “soluble on expression in E. coli” value was “not soluble”.

Consider “MGSDKIHHHHHHMPSETRLPNFIRTLIFALSFIFLNACSEQTAQTVTLQGETMGTTYTVKYLSNNRDKLPSPAEIQKRIDDALKEVNRQMSTYQPDSEISRFNQHTAGKPLRISSDFAHVTAEAVHLNRLTHGALDVTVGPLVNLWGFGPDKSVTREPSPEQIKQAASYTGIDKIILKQGKDYASLSKTHPKAYLDLSSIAKGFGVDKVAGELEKYGIQNYLVEIGGELHGKGKNARGEPWRIGIEQPNIVQGGNTQIIVPLNNRSLATSGDYRIFHVDKSGKRLSHIINPNNKRPISHNLASISVVADSAMTADGLSTGLFVLGETEALKLAEREKLAVFLIVRDKGGYRTAMSSEFEKLLR”, for which the “soluble on expression in E. coli” value was “not soluble”.

For the sequence “MRHNIFYNRREFQMIDNFMQVLKLIKEKRTNNVVKKSDWDKGDLYKTLVHDKLPKQLKVHIKEDKYSVVGKVATGNYSKVPWISIYDENITKETKDGYYLVYLFHPEGEGIYLSLNQGWSKISDMFPRDKNAAKQRALTLSSELNKYITSNEFNTGRFYYAENKDSSYDLKNDYPSGYSHGSIRFKYYDLNEGFTEEDMLEDLKKFLELFNELASKVTKTSYDSLVNSIDEIQEDSEIEEIRTAQKDKTLKEVEAPKGIIPKYKKGVSKTTKNDSEIEKSNKENKLTGKVGEKLALNYFNELIDNKIDEDKKEQFRNILNDNPGSQHGHGYDLVAFDPTNTDKAVEKFIEIKTSTSSSIEEPFFMSLNEMFAMKEYKQKYLILRIFNVSGKEPQFYFIDPYANYSEFKDVDDLIDKVFNVEAIQYKVFGEKLEHHHHHH”, the “soluble on expression in E. coli” value was “not soluble”.

With “MIVGMSVSLLRGRTVRRVLSVLVVAGLLGAGVTGCSNDAGAKTENTVDASPTPTNTPTDGDGDSAEEPAQDTPAEPEQRPVPEEPEAMKTGDKAGAIAAATFFVEVIEYSLHSNNPELLEKYSYENCTNCNNLIETIAYRSKNGYESLETSYVINSVGTPSYVGTNHIIWGVPMSITSKEQLNRKESEQIETNKLTIYVTYENGEWDLTSIDPDGGQSTK”, the “soluble on expression in E. coli” value is recorded as “not soluble”.
